Test results: patent publication US6774106 (Amgen, dated 2004)

Key:
[1] = target: T1, human TACI expressed on 293 cells (phTACI vector) (human, UniProt O14836 1-293); assay: FACS on transfected 293 cells, G70/APRIL-Flag then FITC anti-Flag antibody
T1 construct: also called hTACI gene
T1 sequence: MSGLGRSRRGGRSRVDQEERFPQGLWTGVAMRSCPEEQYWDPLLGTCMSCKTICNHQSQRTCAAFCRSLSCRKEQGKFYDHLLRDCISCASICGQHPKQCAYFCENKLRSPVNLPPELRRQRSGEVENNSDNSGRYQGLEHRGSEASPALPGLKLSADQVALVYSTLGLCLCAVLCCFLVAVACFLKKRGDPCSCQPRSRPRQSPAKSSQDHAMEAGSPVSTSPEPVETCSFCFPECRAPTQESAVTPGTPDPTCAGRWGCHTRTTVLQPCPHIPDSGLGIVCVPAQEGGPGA
Description: (§1) FIGS. 14A, 14B and 14C show soluble mouse G70/APRIL binding to 293 cells expressing the BCMA gene. Human 293 cells transfected with the pmBCMA and pcDNA3 vectors were incubated with G70/APRIL-Flag, followed by FITC-conjugated anti-Flag antibody staining for FACS analysis. A. 293 cells transfected with pcDNA3 vector only. B. 293 cells transfected with antisense pmBCMA vector. C. 293 cells transfected with sense pmBCMA vector.
(§2) Human 293 cells transfected with the phTACI and pcDNA3 vectors were incubated with G70/APRIL-Flag, followed by FITC-conjugated anti-Flag antibody staining for FACS analysis.

[2] = target: T2, mouse BCMA expressed on 293 cells (sense pmBCMA vector) (mouse, UniProt O88472 1-185); assay: as above
T2 construct: also called exogenous BCMA; BCMA gene
T2 sequence: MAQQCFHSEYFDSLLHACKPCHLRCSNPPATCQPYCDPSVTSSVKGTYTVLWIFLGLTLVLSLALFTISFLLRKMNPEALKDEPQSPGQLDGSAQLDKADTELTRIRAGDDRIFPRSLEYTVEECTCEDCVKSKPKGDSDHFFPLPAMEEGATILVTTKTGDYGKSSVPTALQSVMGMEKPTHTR
Description: as §1, §2

B1: Soluble murine APRIL-Flag protein (FLAG-tagged soluble mouse APRIL) (ligand)
chain: MDYKDDDDKKHKKKHSVLHLVPVNITSKDSDVTEVMWQPVLRRGRGLEAQGDIVRVWDTGIYLLYSQVLFHDVTFTMGQVVSREGQGRRETLFRCIRSMPSDPDRAYNSCYSAGVFHLHQGDIITVKIPRANAKLSLSPHGTFLGFVKL
notes: also called Flag-APRIL; Flag-mAPRIL
- binding result [1]: binds
- binding result [2]: binds
